Assay results published in US12686846B2, “Plant sweet and yeast MSF transporter capable of transporting different sugars simultaneously” (THE BOARD OF TRUSTEES OF THE UNIVERSITY OF ILLINOIS, priority 2020, dated 2026).
“And” between values parts separate entries of the source, which are not always exact repeats. Equal entries are not always repeated. “Also recorded” adds a separate entry of the source.

Tests used:
[1] = system: SR8D8 expressing transporter; test: Sole glucose or xylose flask fermentation; type: cell-based, S. cerevisiae; conditions: glucose or xylose conditions, YP medium
Procedure: (§1) For flask fermentation, a single colony was inoculated to 5 or 25 mL YPE ([…], 1% w/v yeast extract, 2% peptone, 5% ethanol) supplemented with 200 μg/ml of geneticin to obtain seed cultures. […] Flask fermentations were maintained at 30° C. and 250 rpm.
(§2) A xylose fermenting S. cerevisiae yeast (SR8) with HXT1-7Δ, GAL2Δ deletions was used for transporter screening and characterization (SR8D8). SR8D8 was grown in YPE medium/plate (10 g/L yeast extract, 20 g/L peptone, and 5 g/L ethanol). […] SRD8 strains transformed with plasmid containing KanMX marker conferring resistance to G418 (geneticin) were propagated on YPE supplemented with 200 μg/ml of geneticin. For growth and flask fermentation experiments all media was supplemented with 200 μg/ml of geneticin for plasmid maintenance. Biomass was calculated from the OD600 measured using a Biomate 5 UV-visible spectrophotometer (Fisher, NY, USA). All growth rates were measured using a Bioscreen C plate reader system (Growth Curves USA, Piscataway, NJ, USA). A 2 μL inoculum of fully grown culture was added into 200 μL YP (+200 μg/ml Geneticin) with varying concentrations of different sugars. A wide band filter (420-580 nm) was used to measure optical density. Bioscreen C values represent mean value from three biological replicates. In all cases, the Bioscreen C was set to maintain a temperature of 30° C. and high aeration through high continuous shaking.

[2] = system: transporter-overexpressing SR8D8; test: Inhibition of xylose uptake by glucose; type: cell-based, S. cerevisiae; conditions: 25 mM or 100 mM glucose
Procedure: SR8D8 containing the respective plasmid was grown on selective YPE medium to an OD600 of 1-1.5, harvested by centrifugation, and washed twice in ice-cold uptake buffer (100 mM potassium phosphate, pH 6.5). C14 labeled sugar uptake assay was done according to Boles and Oreb. Radioactivity was analyzed in a Beckman-Coulter LS6500 multi-purpose liquid scintillation counter (Beckman-Coulter, CA, USA).
Sugar solutions contained 0.135-0.608 μCi of D-[U-^14C]-glucose (290-300 mCi/mmol) or D-[1-^14C]-xylose (55 mCi/mmol) (PerkinElmer, MA, USA). Calculation of Km (Michaelis constant), Vmax (maximal initial uptake velocity), and K (inhibitor constant for competitive inhibition) was done by nonlinear regression analysis and global curve fitting in Prism 7 (GraphPad Software) with values of three independent measurements.

[3] = system: SR8D8 expressing transporter; test: Mixed sugar fermentation at industrially relevant sugar concentrations; type: cell-based, S. cerevisiae; conditions: 7% glucose and 4% xylose (70 g/L, 40 g/L)
Procedure: as §1

[4] = system: SR8D8 expressing transporter; test: Glucose and xylose mixed sugar flask fermentation (20 g/L each); type: cell-based, S. cerevisiae; conditions: 20 g/L of glucose and xylose, YP medium
Procedure: as §1, §2

[5] = system: SR8D8 expressing transporter; test: Transporter screening for growth on glucose or xylose (Bioscreen C); type: cell-based, S. cerevisiae; conditions: glucose or xylose containing medium, OD600
Procedure: ScGal2 expressing SR8D8 were used as a positive control (FIG. 3). Most of the AtSWEETs and putative oleaginous transporters expressing strains were not able to grow on glucose or xylose.
as §2

[6] = substrate: OC[C@H]1OC(O)[C@H](O)[C@@H](O)[C@@H]1O; test: cells, lysate or membranes; conditions: other: initial glucose uptake (5 s), 30° C., pH 6.5, 0.2 to 100 mM glucose, ± SEM in Table 1

B1: LST1_205437: Lipomyces starkeyi LST1 transporter polypeptide, SEQ ID NO:4, GenBank ODQ75362.1 (protein)
chain: MGFLGFLNRSQASEPVEKESTATTPSEGRTPQRPLSPAVGVPLEQDFETQLSAKDAPLLAFILGGVASVGGFMFGYQTGQISGFLEMSDFKTRFAACNSQTGQCTFSAARQGTIVGLFSIGTLIGSLIAAPIADRIGRRLTISFWAFFFMIGTVLEISSSHVWVQFAMGRFVGGLGIGALSVVVPMYQSESTPRMIRGVIVSSYQLMVTLGIWLAYMINWGTESLQGSQSWRITNGMSFLWALVLGIAILGLPESPRYAYRVGREEEARKNMARLYKLSPNHPIINLEIQEIQEKLDAERVGGDHPWYEIFTGPRMLYRTILGMVLQAGQQLTGANYFFYYGTTVFSATGLSNSYVTQIILGSVNVGGTIAGLWLIENCGRRKALMGGAAWMFMCFMVFAFVGHFSLDHQNPEATPQAGAALVVFSCLFIIAFAMTWGPIVWAIVGELYPARYRATCMGLATSSNWLFNFLIGFFTTFITGDIDYLYGLVFAGCCFALFFIVYFFVIETKGRSLEEIDTMYVLHVNPINSAKWDSSQLMRDGDGLVNTDDLYLEAGGNRFAKDEHSAHEMIPSHDENAPGPSHTSHADIEKAESSGAESRDAL
modifications: Lipomyces starkeyi LST1_204537 transporter polypeptide
[1]
  sole sugar fermentation performance: enabled glucose and xylose fermentation, depleting all provided sugars
[2]
  inhibition of xylose transport by glucose (in words): partial inhibition of xylose uptake by glucose
[3]
  mixed sugar utilization profile at high sugar: partial xylose and glucose co-consumption
[4]
  glucose and xylose mixed sugar fermentation phenotype: co-consumption of glucose and xylose; also recorded: partial co-fermentation; also recorded: simultaneously utilize glucose and xylose
[5]
  growth / transport capacity on glucose or xylose: substantial growth on xylose and glucose; also recorded: capable of sustaining an efficient growth on glucose or xylose

B2: Arabidopsis thaliana AtSWEET7 transporter, wild type (Table 2: SEQ ID NO: 3; FIG. 12: SEQ ID NO:2) (Arabidopsis thaliana) (protein)
chain: MVFAHLNLLRKIVGIIGNFIALCLFLSPTPTFVRIVKKKSVEEYSPIPYLATLINCLVWVLYGLPTVHPDSTLVITINGTGILIEIVFLTIFFVYCGRQKQRLIISAVIAAETAFIAILAVLVLTLQHTTEKRTMSVGIVCCVFNVMMYASPLSVMKMVIKTKSVEFMPFWLSVAGFLNAGVWTIYALMPFDPFMAIPNGIGCLFGLAQLILYGAYYKSTKRIMAERENQPGYVGLSSAIARTGSEKTANTNQEPNNV
[6]
  Km: 75 mM and 74.1 ± 13.0 mM
[1]
  sole sugar fermentation performance: enabled glucose and xylose fermentation, depleting all provided sugars
[2]
  inhibition of xylose transport by glucose (in words): do not have any xylose transport inhibition in the presence of both 25 mM and 100 mM glucose
[3]
  mixed sugar utilization profile at high sugar: co-consumption of glucose and xylose even at higher glucose concentrations
[4]
  glucose and xylose mixed sugar fermentation phenotype: simultaneous co-consumption of glucose and xylose with almost the same rates of sugar consumption; also recorded: true co-fermentation phenotype
[4]; listed as SWEET7
  glucose and xylose mixed sugar fermentation phenotype: simultaneously utilize glucose and xylose
[5]
  growth / transport capacity on glucose or xylose: substantial growth on xylose and glucose; also recorded: both glucose and xylose transport capacity
[5]; listed as SWEET7
  growth / transport capacity on glucose or xylose: capable of sustaining an efficient growth on glucose or xylose
